Reference: PMC12084609, “Structural insights into small-molecule agonist recognition and activation of complement receptor C3aR” (The EMBO Journal, 2025)
Residue numbers refer to the chain shown, from its start. “And” between values parts separate entries of the source, which are not always exact repeats. Equal values may be shown once.

Experiments:
Type in all cases: cell-based
[1] = molecular target: T1, C3aR I421^7.39A (Homo sapiens, UniProt Q16581, I421A); assay: GloSensor-based cAMP assay, C3aR mutant I421A; settings: I4217.39A, single replicates
T1 construct: expressed in transfected cells; host or cells: HEK293T
T1 sequence (Q16581 1-482 I421A): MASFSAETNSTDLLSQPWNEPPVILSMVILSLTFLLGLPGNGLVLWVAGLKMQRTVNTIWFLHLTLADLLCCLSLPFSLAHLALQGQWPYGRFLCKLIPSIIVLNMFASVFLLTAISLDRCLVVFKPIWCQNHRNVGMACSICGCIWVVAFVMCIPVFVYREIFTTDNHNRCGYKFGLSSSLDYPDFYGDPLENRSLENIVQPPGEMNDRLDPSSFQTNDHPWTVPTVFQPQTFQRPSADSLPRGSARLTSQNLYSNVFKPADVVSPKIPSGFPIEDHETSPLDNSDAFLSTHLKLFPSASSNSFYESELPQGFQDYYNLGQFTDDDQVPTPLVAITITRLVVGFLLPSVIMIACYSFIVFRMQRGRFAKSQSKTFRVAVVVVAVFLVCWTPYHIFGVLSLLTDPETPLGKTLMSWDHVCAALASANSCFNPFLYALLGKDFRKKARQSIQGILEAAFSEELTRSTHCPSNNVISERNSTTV
Method: (§1) HEK293T cells were seeded on 6-well plates (NEST) and transfected with pGlosensor™-22F plasmids (Promega) and pcDNA3.1 plasmids encoding C3aR or its mutants an with N-terminal FLAG tag. After 48 h, cells were detached with Accutase solution (Sigma-Aldrich) and washed with PBS, and resuspended in assay buffer (CO2-independent medium with 0.5 mg mL^−1D-luciferin). 100,000–200,000 cells were seeded on 96-well white bottom plates (SPL) and incubated at 37 °C for 45 min followed by 45 min incubation at room temperature. After 90 min of incubation, basal luminescence signals were recorded. In total, 25 μl of test ligand with various concentrations and 1 μM Forskolin (Sigma-Aldrich) were treated to the cells and luminescence signals were measured by Tristar 2 LB 942 multimode reader (Berthold). […] Relative luminescence unit (%) was calculated with the signal of wells treated with vehicle as 0% and the signal of wells treated with 1 μM Forskolin as 100% (DiRaddo et al, [2014]). Nonlinear regression was performed using a three-parameter logistic equation.

[2] = molecular target: T2, C3aR WT (Homo sapiens, UniProt Q16581); assay: GloSensor-based cAMP assay, WT C3aR (HEK293T)
T2 construct: expressed in transfected cells; host or cells: HEK293T
T2 sequence (Q16581 1-482): T1 sequence (Q16581 1-482 I421A) with A421I
Method: as §1

[3] = molecular target: C3aR (Homo sapiens, UniProt Q16581); assay: Gi recruitment BRET assay (C3aR-eYFP / Gαi-Rluc8, HEK293T); settings: for ΔBRET (ligand-vehicle): individual replicates
Chain of C3aR (Q16581 whole entry): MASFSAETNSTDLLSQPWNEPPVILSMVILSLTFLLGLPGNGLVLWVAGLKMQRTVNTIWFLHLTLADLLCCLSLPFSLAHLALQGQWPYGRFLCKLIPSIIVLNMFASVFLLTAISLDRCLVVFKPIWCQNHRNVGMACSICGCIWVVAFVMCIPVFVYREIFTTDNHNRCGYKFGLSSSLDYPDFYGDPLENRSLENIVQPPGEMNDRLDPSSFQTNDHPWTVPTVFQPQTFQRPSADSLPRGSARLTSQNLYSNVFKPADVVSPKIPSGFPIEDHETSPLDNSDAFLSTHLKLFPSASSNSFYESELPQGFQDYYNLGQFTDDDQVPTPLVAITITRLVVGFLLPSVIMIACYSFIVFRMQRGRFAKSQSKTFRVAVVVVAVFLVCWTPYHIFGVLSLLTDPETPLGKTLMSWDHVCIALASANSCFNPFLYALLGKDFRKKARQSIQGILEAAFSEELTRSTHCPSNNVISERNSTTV
Chain of C3aR (P63096 2-354 partner limits assumed): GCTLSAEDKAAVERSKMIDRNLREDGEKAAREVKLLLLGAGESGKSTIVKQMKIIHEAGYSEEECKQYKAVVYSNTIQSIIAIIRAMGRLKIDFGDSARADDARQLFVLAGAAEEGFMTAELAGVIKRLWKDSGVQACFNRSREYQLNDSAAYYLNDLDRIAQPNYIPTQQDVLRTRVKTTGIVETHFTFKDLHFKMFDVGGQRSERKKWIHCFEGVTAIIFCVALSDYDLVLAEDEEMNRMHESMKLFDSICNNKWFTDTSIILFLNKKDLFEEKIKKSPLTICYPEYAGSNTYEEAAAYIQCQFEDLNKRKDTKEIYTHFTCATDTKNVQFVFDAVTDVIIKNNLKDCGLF
Chain of C3aR (P62873 2-340 partner limits assumed): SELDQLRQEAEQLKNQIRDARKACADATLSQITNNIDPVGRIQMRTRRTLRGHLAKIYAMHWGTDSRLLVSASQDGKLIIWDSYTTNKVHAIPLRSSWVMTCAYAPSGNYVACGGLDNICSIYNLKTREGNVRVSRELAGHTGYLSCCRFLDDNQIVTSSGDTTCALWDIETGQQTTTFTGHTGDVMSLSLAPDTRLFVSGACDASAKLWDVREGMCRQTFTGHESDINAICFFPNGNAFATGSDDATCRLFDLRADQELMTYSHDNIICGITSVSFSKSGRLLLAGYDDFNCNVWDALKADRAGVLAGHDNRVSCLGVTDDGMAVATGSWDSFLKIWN
Chain of C3aR (P59768 2-68 partner limits assumed): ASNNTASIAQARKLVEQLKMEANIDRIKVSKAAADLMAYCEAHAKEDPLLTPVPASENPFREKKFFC
Method: HEK293T cells were seeded on 6-well plates (NEST) and transfected with pcDNA3.1 plasmids encoding C3aR-eYFP, Gαi-Rluc8, Gβ1, and Gγ2 with a ratio of 5:1:1:1. After 48 h, cells were harvested and resuspended with in PBS. Cells were treated with test ligand with various concentrations and seeded on 96-well white bottom plates (SPL). After 3 min incubation at 37 °C, coelenterazine h (Nanolight) was added with a final concentration of 10 μM. Luminescence and fluorescence were measured using a Tristar 2 LB 942 multimode reader (Berthold).

Q: “C3a: anaphylatoxin C3a, natural peptide ligand of C3aR (a 77-amino acid peptide), Sigma-Aldrich” was tested. Which “cAMP response (% Forskolin)” value ([1]; Log[C3a (M)] -10) did it give?
A: The value was 97.12 % Forskolin and 96.88 % Forskolin and 97.52 % Forskolin and 98.66 % Forskolin and 91.65 % Forskolin and 90.54 % Forskolin and 92.28 % Forskolin.

Q: What about the “cAMP response (% Forskolin)” value ([1]; Log[C3a (M)] -11) of the same substance?
A: Its value is 100.24 % Forskolin and 95.23 % Forskolin and 97.32 % Forskolin and 97.61 % Forskolin and 88.75 % Forskolin and 89.55 % Forskolin and 96.90 % Forskolin.

Q: What about the “cAMP response (% Forskolin)” value ([1]; Log[C3a (M)] -12) of the same substance?
A: Its value is 96.20 % Forskolin and 95.22 % Forskolin and 96.06 % Forskolin and 97.86 % Forskolin and 95.09 % Forskolin and 99.13 % Forskolin and 96.01 % Forskolin.

Q: What about the “cAMP response (% Forskolin)” value ([2]; Log[ligand (M)] -7, individual replicates) of the same substance?
A: Its value is 13.23 % Forskolin and 9.10 % Forskolin and 12.07 % Forskolin and 14.17 % Forskolin and 11.07 % Forskolin and 5.64 % Forskolin and 5.88 % Forskolin and 10.80 % Forskolin and 18.77 % Forskolin and 9.30 % Forskolin and 7.84 % Forskolin and 11.11 % Forskolin and 5.15 % Forskolin and 8.46 % Forskolin and 12.88 % Forskolin and 7.97 % Forskolin and 4.89 % Forskolin and 13.21 % Forskolin and 8.34 % Forskolin and 9.36 % Forskolin and 10.44 % Forskolin.

Q: What about the “cAMP response (% Forskolin)” value ([2]; Log[ligand (M)] -8, individual replicates) of the same substance?
A: The value was 14.46 % Forskolin and 11.08 % Forskolin and 11.75 % Forskolin and 14.58 % Forskolin and 33.21 % Forskolin and 8.44 % Forskolin and 9.26 % Forskolin and 14.67 % Forskolin and 23.44 % Forskolin and 12.45 % Forskolin and 9.97 % Forskolin and 12.70 % Forskolin and 7.51 % Forskolin and 11.02 % Forskolin and 17.00 % Forskolin and 9.96 % Forskolin and 6.25 % Forskolin and 18.05 % Forskolin and 9.98 % Forskolin and 10.68 % Forskolin and 14.94 % Forskolin.

Q: And the “cAMP response (% Forskolin)” value ([2]; Log[ligand (M)] -9, individual replicates)?
A: The value was 89.10 % Forskolin and 91.75 % Forskolin and 55.83 % Forskolin and 67.46 % Forskolin and 97.65 % Forskolin and 80.78 % Forskolin and 91.72 % Forskolin and 89.77 % Forskolin and 62.11 % Forskolin and 58.26 % Forskolin and 94.14 % Forskolin and 92.02 % Forskolin and 88.40 % Forskolin and 88.60 % Forskolin and 88.28 % Forskolin and 92.79 % Forskolin and 82.03 % Forskolin and 98.67 % Forskolin and 72.46 % Forskolin and 83.05 % Forskolin and 92.23 % Forskolin.

Q: What about the “cAMP response (% Forskolin)” value ([2]; Log[ligand (M)] -10, individual replicates) of the same substance?
A: The value was 100.49 % Forskolin and 92.00 % Forskolin and 96.47 % Forskolin and 95.65 % Forskolin and 99.73 % Forskolin and 94.19 % Forskolin and 91.55 % Forskolin and 96.59 % Forskolin and 91.09 % Forskolin and 100.53 % Forskolin and 103.10 % Forskolin and 100.18 % Forskolin and 107.39 % Forskolin and 101.42 % Forskolin and 99.05 % Forskolin and 90.86 % Forskolin and 91.78 % Forskolin and 95.04 % Forskolin and 92.70 % Forskolin and 92.81 % Forskolin and 96.03 % Forskolin.

Q: What about the “cAMP response (% Forskolin)” value ([2]; Log[ligand (M)] -11, individual replicates) of the same substance?
A: The value was 101.69 % Forskolin and 104.79 % Forskolin and 99.76 % Forskolin and 97.79 % Forskolin and 100.01 % Forskolin and 95.95 % Forskolin and 100.56 % Forskolin and 98.17 % Forskolin and 98.43 % Forskolin and 104.54 % Forskolin and 103.48 % Forskolin and 99.03 % Forskolin and 107.10 % Forskolin and 101.90 % Forskolin and 98.42 % Forskolin and 97.15 % Forskolin and 94.72 % Forskolin and 92.05 % Forskolin and 96.59 % Forskolin and 94.55 % Forskolin and 98.62 % Forskolin.

Q: What about the “cAMP response (% Forskolin)” value ([2]; Log[ligand (M)] -12, individual replicates) of the same substance?
A: The value was 96.64 % Forskolin and 93.74 % Forskolin and 99.06 % Forskolin and 103.59 % Forskolin and 106.40 % Forskolin and 103.79 % Forskolin and 101.64 % Forskolin and 99.02 % Forskolin and 93.95 % Forskolin and 101.82 % Forskolin and 99.95 % Forskolin and 96.51 % Forskolin and 98.16 % Forskolin and 96.67 % Forskolin and 94.02 % Forskolin and 101.30 % Forskolin and 98.69 % Forskolin and 95.26 % Forskolin and 98.94 % Forskolin and 96.13 % Forskolin and 98.01 % Forskolin.

Q: What about the “pIC50 ± SEM (Mean)” value ([2]; WT C3aR, 1 μM Forskolin, mean of independent experiments) of the same substance?
A: The value was 8.56.

Q: And the “pIC50 Value” ([2]; WT C3aR, Figure EV1B numerical data, curve fit)?
A: The value was 8.52.

Q: What about the IC50 ([2]; WT C3aR, decrease in cAMP levels, read-out: IC50) of the same substance?
A: Its IC50 is 2.87 nM.

Q: And the “pIC50 (Replicate)” value ([2]; WT C3aR, individual replicates)?
A: Its value is 8.46 and 8.98 and 8.82 and 8.27 and 8.58 and 8.47 (4×) and 8.89 and 8.95 and 8.48 and 8.53 (2×) and 8.50 and 8.45 and 8.54 and 8.67 and 8.44.

Q: What about the “cAMP response (% Forskolin)” value ([2]; WT, Log[C3a (M)] -7, single replicates) of the same substance?
A: Its value is 13.23 % Forskolin and 9.10 % Forskolin and 12.07 % Forskolin and 14.17 % Forskolin and 11.07 % Forskolin and 5.64 % Forskolin and 5.88 % Forskolin and 10.80 % Forskolin and 18.77 % Forskolin and 9.30 % Forskolin and 7.84 % Forskolin and 11.11 % Forskolin and 5.15 % Forskolin and 8.46 % Forskolin and 12.88 % Forskolin and 7.97 % Forskolin and 4.89 % Forskolin and 13.21 % Forskolin and 8.34 % Forskolin and 9.36 % Forskolin and 10.44 % Forskolin.

Q: What about the “cAMP response (% Forskolin)” value ([2]; WT, Log[C3a (M)] -8, single replicates) of the same substance?
A: Its value is 14.46 % Forskolin and 11.08 % Forskolin and 11.75 % Forskolin and 14.58 % Forskolin and 33.21 % Forskolin and 8.44 % Forskolin and 9.26 % Forskolin and 14.67 % Forskolin and 23.44 % Forskolin and 12.45 % Forskolin and 9.97 % Forskolin and 12.70 % Forskolin and 7.51 % Forskolin and 11.02 % Forskolin and 17.00 % Forskolin and 9.96 % Forskolin and 6.25 % Forskolin and 18.05 % Forskolin and 9.98 % Forskolin and 10.68 % Forskolin and 14.94 % Forskolin.

Q: What about the “cAMP response (% Forskolin)” value ([2]; WT, Log[C3a (M)] -9, single replicates) of the same substance?
A: Its value is 89.10 % Forskolin and 91.75 % Forskolin and 55.83 % Forskolin and 67.46 % Forskolin and 97.65 % Forskolin and 80.78 % Forskolin and 91.72 % Forskolin and 89.77 % Forskolin and 62.11 % Forskolin and 58.26 % Forskolin and 94.14 % Forskolin and 92.02 % Forskolin and 88.40 % Forskolin and 88.60 % Forskolin and 88.28 % Forskolin and 92.79 % Forskolin and 82.03 % Forskolin and 98.67 % Forskolin and 72.46 % Forskolin and 83.05 % Forskolin and 92.23 % Forskolin.

Q: And the “cAMP response (% Forskolin)” value ([2]; WT, Log[C3a (M)] -10, single replicates)?
A: Its value is 100.49 % Forskolin and 92.00 % Forskolin and 96.47 % Forskolin and 95.65 % Forskolin and 99.73 % Forskolin and 94.19 % Forskolin and 91.55 % Forskolin and 96.59 % Forskolin and 91.09 % Forskolin and 100.53 % Forskolin and 103.10 % Forskolin and 100.18 % Forskolin and 107.39 % Forskolin and 101.42 % Forskolin and 99.05 % Forskolin and 90.86 % Forskolin and 91.78 % Forskolin and 95.04 % Forskolin and 92.70 % Forskolin and 92.81 % Forskolin and 96.03 % Forskolin.

Q: What about the “cAMP response (% Forskolin)” value ([2]; WT, Log[C3a (M)] -11, single replicates) of the same substance?
A: Its value is 101.69 % Forskolin and 104.79 % Forskolin and 99.76 % Forskolin and 97.79 % Forskolin and 100.01 % Forskolin and 95.95 % Forskolin and 100.56 % Forskolin and 98.17 % Forskolin and 98.43 % Forskolin and 104.54 % Forskolin and 103.48 % Forskolin and 99.03 % Forskolin and 107.10 % Forskolin and 101.90 % Forskolin and 98.42 % Forskolin and 97.15 % Forskolin and 94.72 % Forskolin and 92.05 % Forskolin and 96.59 % Forskolin and 94.55 % Forskolin and 98.62 % Forskolin.

Q: What about the “cAMP response (% Forskolin)” value ([2]; WT, Log[C3a (M)] -12, single replicates) of the same substance?
A: The value was 96.64 % Forskolin and 93.74 % Forskolin and 99.06 % Forskolin and 103.59 % Forskolin and 106.40 % Forskolin and 103.79 % Forskolin and 101.64 % Forskolin and 99.02 % Forskolin and 93.95 % Forskolin and 101.82 % Forskolin and 99.95 % Forskolin and 96.51 % Forskolin and 98.16 % Forskolin and 96.67 % Forskolin and 94.02 % Forskolin and 101.30 % Forskolin and 98.69 % Forskolin and 95.26 % Forskolin and 98.94 % Forskolin and 96.13 % Forskolin and 98.01 % Forskolin.

Q: And the “pEC50 Value” ([3]; Figure EV1A numerical data, curve fit)?
A: The value was 8.52.

Q: What about the “ΔBRET (ligand-vehicle)” value ([3]; Log[ligand (M)] -7) of the same substance?
A: The value was 0.032 and 0.030 and 0.024 and 0.026.

Q: And the “ΔBRET (ligand-vehicle)” value ([3]; Log[ligand (M)] -8)?
A: The value was 0.029 and 0.025 and 0.020 and 0.022.

Q: And the “ΔBRET (ligand-vehicle)” value ([3]; Log[ligand (M)] -9)?
A: Its value is 0.010 and 0.009 and 0.006 and 0.007.

Q: And the “ΔBRET (ligand-vehicle)” value ([3]; Log[ligand (M)] -10)?
A: Its value is 0.00235 and 0.00134 and 0.00248 and 0.003.

Q: What about the “ΔBRET (ligand-vehicle)” value ([3]; Log[ligand (M)] -11) of the same substance?
A: Its value is 0.000317 and 0.00116 and 0.00278 and 0.00544.

Q: What about the “ΔBRET (ligand-vehicle)” value ([3]; Log[ligand (M)] -12) of the same substance?
A: Its value is 0.000368 and 0.000727 and 0.00354 and 0.006.

Q: What about the “Span Value” ([3]; span of ΔBRET curve, Figure EV1A numerical data) of the same substance?
A: Its value is 0.027.
